The source of these data is paper PMC11570956.

Common to all, as to experiment: fluorescence anisotropy
(Fluorescence polarisation rises when a labelled molecule tumbles more slowly, as on binding a larger partner.)

In series [1] the test system is eIF4GI557-1599;eIF4A (Homo sapiens;Homo sapiens?). To be noted: 20 mM HEPES-KOH pH 7.6, 200 mM KCl, 1 mM MgCl2, 25 ± 0.5 °C, 10 nM labeled RNA, co-factors 1 µM eIF4A, 1 µM eIF4E, 1 mM ATP (2.5 µM proteins also stated).
Series [2] concerns eIF4B (Homo sapiens). The conditions noted are these: 20 mM HEPES-KOH pH 7.6, 200 mM KCl, 1 mM MgCl2, 25 ± 0.5 °C; 10 nM labeled RNA; co-factors 1 µM eIF4A, 1 µM eIF4E, 1 mM ATP (2.5 µM proteins also stated).
Series [3] deals with eIF4GI557-1599;eIF4A;eIF4B (Homo sapiens;;Homo sapiens). The conditions noted are these: 20 mM HEPES-KOH pH 7.6, 200 mM KCl, 1 mM MgCl2, 25 ± 0.5 °C, 10 nM labeled RNA, co-factors 1 µM eIF4A, 1 µM eIF4E, 1 mM ATP (2.5 µM proteins also stated).
The test system of series [4] is eIF4GI557-1599;eIF4A;eIF4E (Homo sapiens;;Homo sapiens). The conditions noted are these: 20 mM HEPES-KOH pH 7.6, 200 mM KCl, 1 mM MgCl2, 25 ± 0.5 °C, 10 nM labeled RNA, co-factors 1 µM eIF4A, 1 µM eIF4E, 1 mM ATP (2.5 µM proteins also stated).
Series [5] has as its system eIF4GI557-1599;eIF4E (Homo sapiens;Homo sapiens). To be noted: 20 mM HEPES-KOH pH 7.6, 200 mM KCl, 1 mM MgCl2, 25 ± 0.5 °C; 10 nM labeled RNA; co-factors 1 µM eIF4A, 1 µM eIF4E, 1 mM ATP (2.5 µM proteins also stated).
Series [6] deals with eIF4GI682-1599;eIF4A (Homo sapiens;Homo sapiens?). To be noted: 20 mM HEPES-KOH pH 7.6, 200 mM KCl, 1 mM MgCl2, 25 ± 0.5 °C; 10 nM labeled RNA; co-factors 1 µM eIF4A, 1 µM eIF4E, 1 mM ATP (2.5 µM proteins also stated).
Series [7] concerns eIF4GI682-1599;eIF4E (Homo sapiens;Homo sapiens). The conditions noted are these: 20 mM HEPES-KOH pH 7.6, 200 mM KCl, 1 mM MgCl2, 25 ± 0.5 °C; 10 nM labeled RNA; co-factors 1 µM eIF4A, 1 µM eIF4E, 1 mM ATP (2.5 µM proteins also stated).
The test system of series [8] is eIF4GI682-1599 (Homo sapiens). The conditions noted are these: 20 mM HEPES-KOH pH 7.6, 200 mM KCl, 1 mM MgCl2, 25 ± 0.5 °C; 10 nM labeled RNA; co-factors 1 µM eIF4A, 1 µM eIF4E, 1 mM ATP (2.5 µM proteins also stated).
Series [9] has as its system eIF4GI682-1599;eIF4A;eIF4E (Homo sapiens;;Homo sapiens). The conditions noted are these: 20 mM HEPES-KOH pH 7.6, 200 mM KCl, 1 mM MgCl2, 25 ± 0.5 °C; 10 nM labeled RNA; co-factors 1 µM eIF4A, 1 µM eIF4E, 1 mM ATP (2.5 µM proteins also stated).
In series [10] the test system is eIF4GI557-1599;eIF4A;eIF4E;eIF4B (Homo sapiens;Homo sapiens?;Homo sapiens;Homo sapiens). To be noted: 20 mM HEPES-KOH pH 7.6, 200 mM KCl, 1 mM MgCl2, 25 ± 0.5 °C; 10 nM labeled RNA; co-factors 1 µM eIF4A, 1 µM eIF4E, 1 mM ATP (2.5 µM proteins also stated).
For series [11], the system named is eIF4GI557-1599 (Homo sapiens). The conditions noted are these: 20 mM HEPES-KOH pH 7.6, 200 mM KCl, 1 mM MgCl2, 25 ± 0.5 °C; 10 nM labeled RNA; co-factors 1 µM eIF4A, 1 µM eIF4E, 1 mM ATP (2.5 µM proteins also stated).
Series [12] relates to eIF4A. To be noted: 20 mM HEPES-KOH pH 7.6, 200 mM KCl, 1 mM MgCl2, 25 ± 0.5 °C; 10 nM labeled RNA; co-factors 1 µM eIF4A, 1 µM eIF4E, 1 mM ATP (2.5 µM proteins also stated).

Several values for one entry are separate records, joined by “and”; a condition that tells them apart may be missing. Identical values can stand only once.

FGF-9 5'UTR (uncapped): the Kd (in general, a measure of binding affinity in units of concentration) in series [1] is 14 nM; in series [1] (no nucleotide) it was 16 nM; in [2], 38 nM; in series [3], 19 nM; in series [3] (AMP-PNP) it was 20 nM; in [3] (no nucleotide), 24 nM. The Kd in series [4] was 18 nM; in series [4] (ADP) it was 13 nM; in [4] (no nucleotide) it was 15 nM; in series [5] it was 16 nM; in series [6] it was 26 nM and 16 nM; in series [7] it was 110 nM. Besides, the equilibrium dissociation constant (Kd) in series [8] is 120 nM; in series [9], 20 nM and 30 nM; in [10], 14 nM; in series [11], 14 nM; in series [12], 667 nM and 115 nM.

HIF-1α 5'UTR (uncapped): the Kd was 13 nM in series [1]; 17 nM in series [1] (no nucleotide); 54 nM in [2]; 17 nM in series [3]; 14 nM in [3] (AMP-PNP); 12 nM in series [3] (no nucleotide). Besides, the dissociation constant (Kd) in series [4] is 22 nM; in series [4] (ADP) it was 26 nM; in [4] (no nucleotide), 14 nM; in series [5], 15 nM; in series [6] it was 17 nM and 20 nM; in series [7], 142 nM. Moreover, the equilibrium dissociation constant (Kd) was 139 nM in [8]; 21 nM and 16 nM in series [9]; 19 nM in [10]; 50 nM in series [11]; 252 nM and 28 nM in [12].
